The target in the data set is hUNG2 N-terminal domain (NTD) (Homo sapiens, UniProt P13051 1-92). Description: fluorescence anisotropy. (Fluorescence polarisation rises when a labelled molecule tumbles more slowly, as on binding a larger partner.)
Chain of hUNG2 N-terminal domain (NTD) (P13051 1-92): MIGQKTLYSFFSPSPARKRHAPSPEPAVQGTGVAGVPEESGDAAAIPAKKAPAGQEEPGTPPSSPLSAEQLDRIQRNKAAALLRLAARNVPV

B1: NS19FAM ssDNA (ssDNA)
DNA: GCTCTGTACATGAGCAGTG
For orientation: Kd means the concentration at which binding is half-saturated. Read a high Kd as a looser complex. B1 gave a Kd of 23 µM.

B2: NS19FAM duplex (dsDNA)
DNA 1: GCTCTGTACATGAGCAGTG
DNA 2: CACTGCTCATGTACAGAGC
B2: binding was characterised by a dissociation constant (Kd) of 10 µM.

(Values after PMC6990647.)
